As usually defined, the Kd is the constant that tells how readily two partners part at equilibrium. A lower Kd goes with tighter binding.

We go through two molecules from patent US20220332804A1 (CSL INNOVATION, published 2022).

Residue numbers refer to the chain shown, from its start.

Assay [1] deals with T1, human C2 Y328A (human, UniProt P06681 21-752).
T1 sequence: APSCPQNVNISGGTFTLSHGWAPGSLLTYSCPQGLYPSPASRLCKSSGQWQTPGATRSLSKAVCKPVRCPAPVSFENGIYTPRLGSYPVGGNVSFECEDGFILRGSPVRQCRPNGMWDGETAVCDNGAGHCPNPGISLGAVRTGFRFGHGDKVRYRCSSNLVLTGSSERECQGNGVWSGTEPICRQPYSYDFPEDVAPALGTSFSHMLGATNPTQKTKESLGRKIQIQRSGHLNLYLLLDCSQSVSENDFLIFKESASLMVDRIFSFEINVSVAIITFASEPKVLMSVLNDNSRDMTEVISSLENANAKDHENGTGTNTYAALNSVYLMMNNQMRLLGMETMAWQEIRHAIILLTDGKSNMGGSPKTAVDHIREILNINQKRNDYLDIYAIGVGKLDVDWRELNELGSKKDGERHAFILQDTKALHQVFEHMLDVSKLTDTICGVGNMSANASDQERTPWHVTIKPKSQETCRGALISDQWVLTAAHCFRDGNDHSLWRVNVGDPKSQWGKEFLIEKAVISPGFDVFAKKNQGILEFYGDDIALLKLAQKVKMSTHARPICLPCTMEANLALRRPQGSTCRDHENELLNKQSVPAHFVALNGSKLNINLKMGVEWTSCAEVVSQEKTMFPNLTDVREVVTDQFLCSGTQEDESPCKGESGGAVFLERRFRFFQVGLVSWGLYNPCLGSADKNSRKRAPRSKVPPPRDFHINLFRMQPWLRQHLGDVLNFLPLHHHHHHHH
Nature of the assay: SPR, mAb captured, C2 mutant analyte.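 Note: Anti-C2 mAbs captured on goat anti-human IgG Biacore CM5 chips, alanine or serine C2 surface mutants flowed over at 37 °C, double-referenced sensorgrams fitted to a 1:1 binding model.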 For orientation: SPR reads the build-up and loss of mass on a sensor chip optically.
Protocol: (§1) Surface plasmon resonance (SPR, Biacore) was used for all binding affinity analyses. In brief, goat anti-human IgG was directly immobilised onto the carboxymethyl dextran surface of CM5 sensorchips to approximately 12,000 RU using standard NHS/EDC chemistry at pH 5. The immobilised antibody surface was pre-conditioned with ten injections of polyclonal human IgG (Privigen 60 s) prepared at 1 μg/mL. Ligands (anti-C2 mAbs) were captured at the beginning of each cycle as described below. An adjacent spot or flow cell in which only Polyclonal IgG was capture was used as a reference surface. The goat anti-human IgG Fc antibody surface was regenerate in 100 mM H3PO4, injected for 45 seconds at the end of each cycle. Experiments were performed at 37° C. and the flow rate of each experiment was kept constant at 30 μL/min.
(§2) Sensogram data was double-referenced against a reference anti-IgG surface (i.e. minus anti-C2 mAb) and blank buffer injections obtained within each experiment. The binding data was fit to 1:1 (kinetic or steady-state) model using local Rmax and null refraction index (RI=0) when appropriate. Buffers and solutions were filtered (0.22 μm) prior to use.

Assay [2] addresses T2, human C2 N327A (human, UniProt P06681 21-752).
T2 sequence: T1 sequence with N307A, A308Y
Nature of the assay: SPR, mAb captured, C2 mutant analyte.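 Note: Anti-C2 mAbs captured on goat anti-human IgG Biacore CM5 chips, alanine or serine C2 surface mutants flowed over at 37 °C, double-referenced sensorgrams fitted to a 1:1 binding model.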
Protocol: as §1, §2

Assay [3] deals with T3, human C2 H331A (human, UniProt P06681 21-752).
T3 sequence: T1 sequence with A308Y, H311A
Put plainly: SPR, antibody captured, C2 as analyte.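 Note: biacore at 37 °C, anti-C2 mAbs held by immobilised goat anti-human IgG, C2 alanine or serine mutants injected, double-referenced sensorgrams fitted to a 1:1 kinetic or steady-state model.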

Assay [4] deals with T4, human C2 F689A (human, UniProt P06681 21-752).
T4 sequence: T1 sequence with A308Y, F669A
Nature of the assay: SPR, antibody captured, C2 as analyte.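 Note: biacore at 37 °C, anti-C2 mAbs held by immobilised goat anti-human IgG, C2 alanine or serine mutants injected, double-referenced sensorgrams fitted to a 1:1 kinetic or steady-state model.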

B1: RF16-214 (antibody, V domains shown)
VH: EVQLLESGGGLVQPGGSLRLSCAASGFTFSWYQMMWVRQAPGKGLEWVSRIYPSGGGTAYADSVKGRFTISRDNSKNTLYLQMNSLRAEDTAVYYCARDAGYGDNWGQGTLVTVSS
VL: QSALTQPPSVSVSPGQTASITCSGDKLGEKYASWYQQKAGQSPVMVIYQDRKRPSGIPERFSGSNSGNTATLTISGTQAMDEADYYCQAWDTRAVVFGGGTKLTVLG
With B1, the Kd in assay [1] worked out at 196 nM; in assay [2] it was 205 nM.

B2: RF16-242 (antibody, human IgG4 S228P, lambda, V domains shown)
VH: EVQLLQSGAEVKKPGESLKISCKGSGYSFTSYWIGWVRQMPGKGLEWMGIIYPGDSDTRYSPSFQGQVTISADKSISTAYLQWSSLKASDTAMYYCARRGHYGDYFDYWGQGTLVTVSS
VL: SYELTQPPSVSVSPGQTARITCSGDALPKKYAYWYHQKSGQAPVLVIYEDRRRPSEIPERFSGSSSGTMATLTITGAQVEDEGVYFCYSRDRAGNQRVFGGGTQLTVLG
notes: pH-dependent anti-C2 antibody from a phage display library
On to B2, for which the Kd in assay [3] was 191 nM; in assay [4], 6.3 nM.
